This passage reports Km, kcat and kcat/Km results from publication PMC6813240, “Functional Differentiation of Duplicated Flavonoid 3-O-Glycosyltransferases in the Flavonol and Anthocyanin Biosynthesis of Freesia hybrida” (Frontiers in Plant Science, 2019).

Substrate in data set [1]: O=c1c(O)c(-c2ccc(O)c(O)c2)oc2cc(O)cc(O)c12
Description: HPLC glucosyltransferase assay. Format: biochemical, Freesia hybrid cultivar. As to conditions: 10 mM UDP-glucose, 50 mM HEPES pH 8.0, 30°C, 2 min, acceptor 10-60 µM.

Substrate in the data set “purified protein”: O=c1c(O)c(-c2ccc(O)cc2)oc2cc(O)cc(O)c12
The data set can be described thus: purified protein. As to conditions: 10 mM UDP-glucose, 50 mM HEPES pH 8.0, 30°C, 2 min.

The mark [2] stands for this setting: acceptor 10-60 µM (Km lies far below this range).

B1: Fh3GT1 (Freesia hybrid cultivar) (protein)
chain: MGSADRSHVALLAFPFGTHAAPLLSLGLNLASSAPHGTTFSFLSNRRPVSLPPNSAIKFYEIADGSDPEHEGHVHPEEEVRVFMEETPGNYKKALEAAVDRCGGQRVTCIVADAFLWFVGDIAAEFGVHWVPLWTGGPCSFLAHLYTDMLRNKIGTGKEADPDEDLQFLPGLSGFRVRDLPDDIVTGDLTGAFASLLHRMSIEIPRSAAAIAINTFEGLHPDIDADLASKFKKSLPIGPLNLLNPTLNQPDRFSCLAWLDKFEPHSVAYVSFGTLAALTEAELVELASGLEQSGVPFLWSLKEPGQLPAGFLDRTKDRGLVVPWVPQAEALKHVAVGASLSHCGWNSVMESVTSGVPMLCRPFLGDQTMNARAVSHVWKVGVTFENGTMTRANVAEAMKKVVVGEEGRKMRERAAAIREMAAGSVRPGGSSVQNFKALLDIVIAR
notes: recombinant from E. coli BL21 (DE3), pET32a, N-terminal 6x His tag, Ni Sepharose purified
Take B1: in data set [1], the Km was determined as 96.38 ± 5.03 µM, the catalytic constant (kcat) is 4.51 ± 0.039 s⁻¹ and the kcat/Km turned out to be 46900 M⁻¹ s⁻¹. In the data set “purified protein” (acceptor 10-60 µM), the Michaelis constant (Km) is 45.38 ± 3.90 µM.

B2: Fh3GT2 (Freesia hybrid cultivar) (protein)
chain: MGSSQPPTRRRHVAVIAFPFSSHPAALFTLARAMAAAAPGTTFSFLSFPGSVDSLSKIPCRPENLRLCHVADPTPPGAIPPEQRIGMFLAAAPAYLRAGIKAAEALDGGGVTCLVSDSLLWMTADVAEEKGVPWVAVWTGGTSALVVHVYTDRLRKFYGVVHGDAIHPRADELLDVNVVPGFSEHRVRDLPEGILWKVDSPFASLVDTMVSKFPRAVAVVANTIPGLDPGLDAAFASKFKNYLPIGPFTILSPLPSPQHDNECVAWLDRQAPASVAYVSFGTLAALPPSELTELANGLEASGVPFLWSMKNKEALPAGFLDRTRGKGLVVDWAPQASVLAHNAVGGFVTHCGWSSVMESVAAGVPMICRSVFGDQTMTAKMVCNAWKIGFGFSGGAITREEVVRGLRMVLRGEEGGREIRERSSELKSLAWREVKVEGRTVKNLNSLIEIING
notes: as for B1
Regarding B2, in data set [1], the Km is 16.62 ± 0.03 µM, the kcat is 1.86 ± 0.0023 s⁻¹ and the kcat/Km was determined as 112000 M⁻¹ s⁻¹. Moreover, in “purified protein” (setting [2]), the Km was 0.13 ± 0.01 µM, the kcat came to 0.73 s⁻¹ and the specificity constant (kcat/Km) was found to be 5.46e+06 M⁻¹ s⁻¹.

By Km is commonly meant the substrate concentration at which the rate is half of its maximum. Broadly, the kcat is the number of substrate molecules converted per active site and unit of time at saturation. As a reminder, the kcat/Km is the second-order rate constant that governs catalysis at low substrate concentration.
